The values that follow come from the RNAGym collection of RNA variant scans (doi:10.7554/elife.80360).

First the molecules themselves.
B1: HDV Ribozyme (parent)
chain: GGCCGGCAUGGUCCCAGCCUCCUCGCUGGCGCCGGCUGGGCAACAUUCCGAGGGGACCGUCCCCUCGGUAAUGGCGAAUGGGACCCA

In the data set the parent is B1. The experiment in a line: self-cleavage, relative activity (ratio to wild type); higher = more cleavage; co-transcriptional.
On to GGCCGGCAUGGUCCCAGCCUCCUGGCUGGCGCCGGCUGGGCAACAUUCCGAGGGGACCGUCCCCUCGGUAAUGGCGAACGGGACCCA [C24G U79C], for which the self-cleavage turned out to be 0.165. As for GGCCGGCAUGGUCCCAGCCUCCUGGCUGGCGCCGGCUGGGCAACAUUCCGAGGGGACCGUCCCCUCGGUAAUGGCGAAGGGGACCCA [C24G U79G], the self-cleavage stood at 0.

GGCCGGCAUGGUCCCAGCCUCCUUGCUGGCGCCGGCUGGGCAACAUUCCGAGGGGACCGUCCCCUCGGUAAUGGCGAAUGGGACACA [C24U C85A]: the self-cleavage worked out at 0.831. In the case of GGCCGGCAUGGUCCCAGCCUCCUUGCUGGCGCCGGCUGGGCAACAUUCCGAGGGGACCGUCCCCUCGGUAAUGGCGAAUGGGACUCA [C24U C85U], the self-cleavage amounted to 0.718. As for GGCCGGCAUGGUCCCAGCCUCCUUGCUGGCGCCGGCUGGGCAACAUUCCGAGGGGACCGUCCCCUCGGUAAUGGCGAAUGGGACGCA [C24U C85G], the self-cleavage amounted to 0.629.

On to GGCCGGCAUGGUCCCAGCCUCCUGGCUGGCGCCGGCUGGGCAACAUUCCGAGGGGACCGUCCCCUCGGUAAUGGCGAAUUGGACCCA [C24G G80U], for which the self-cleavage turned out to be 0.0746. In the case of GGCCGGCAUGGUCCCAGCCUCCUGGCUGGCGCCGGCUGGGCAACAUUCCGAGGGGACCGUCCCCUCGGUAAUGGCGAAUAGGACCCA [C24G G80A], the self-cleavage was 0.0791. In the case of GGCCGGCAUGGUCCCAGCCUCCUGGCUGGCGCCGGCUGGGCAACAUUCCGAGGGGACCGUCCCCUAGGUAAUGGCGAAUGGGACCCA [C24G C66A], the self-cleavage worked out at 0.0723. For GGCCGGCAUGGUCCCAGCCUCCUUGCUGGCGCCGGCUGGGCAACAUUCCGAGGGGACCGUCCCCUCGGUAAUGGCGAAUGGGCCCCA [C24U A83C], the self-cleavage turned out to be 0.219. As for GGCCGGCAUGGUCCCAGCCUCCUUGCUGGCGCCGGCUGGGCAACAUUCCGAGGGGACCGUCCCCUCGGUAAUGGCGAAUGGGGCCCA [C24U A83G], the self-cleavage was determined as 0.394. In the case of GGCCGGCAUGGUCCCAGCCUCCUUGCUGGCGCCGGCUGGGCAACAUUCCGAGGGGACCGUCCCCUCGGUAAUGGCGAAUGGGUCCCA [C24U A83U] it was 0.198; in that of GGCCGGCAUGGUCCCAGCCUCCUUGCUGGCGCCGGCUGGGCAACAUUCCGAGGGGACCGUCCACUCGGUAAUGGCGAAUGGGACCCA [C24U C63A], 0.753. Under GGCCGGCAUGGUCCCAGCCUCCUUGCUGGCGCCGGCUGGGCAACAUUCCGAGGGGACCGUCCCGUCGGUAAUGGCGAAUGGGACCCA [C24U C64G] stands 0.779.

Turning to GGCCGGCAUGGUCCCAGCCUCCUUGCUGGCGCGGGCUGGGCAACAUUCCGAGGGGACCGUCCCCUCGGUAAUGGCGAAUGGGACCCA [C24U C33G], the self-cleavage came out at 0.166. Under GGCCGGCAUGGUCCCAGCCUCCUUGCUGGCGCAGGCUGGGCAACAUUCCGAGGGGACCGUCCCCUCGGUAAUGGCGAAUGGGACCCA [C24U C33A] stands 0.0845.

For the variant GGCCGGCAUGGUCCCAGCCUCCUUGCUGGCGCCGGCUGGGCAACAUUCCGCGGGGACCGUCCCCUCGGUAAUGGCGAAUGGGACCCA [C24U A51C], the self-cleavage came to 0.767.

Take GGCCGGCAUGGUCCCAGCCUCCUUGCUGGCGCCGGCUGGGCAACAUUCCGUGGGGACCGUCCCCUCGGUAAUGGCGAAUGGGACCCA [C24U A51U]: the self-cleavage worked out at 0.681. For the variant GGCCGGCAUGGUCCCAGCCUCCUGGCUGGCGCCGGCUGGGCAACAUUCCGAGGGGACCGUCCCCUCGGUAAUGGCGAAUGGGACGCA [C24G C85G], the self-cleavage came to 0.125.

Turning to GGCCGGCAUGGUCCCAGCCUCCUUGCUGGCGCCGGCUGGGCAGCAUUCCGAGGGGACCGUCCCCUCGGUAAUGGCGAAUGGGACCCA [C24U A43G], the self-cleavage turned out to be 0.

As for GGCCGGCAUGGUCCCAGCCUCCUUGCUGGCGCCGGCUGGGCAUCAUUCCGAGGGGACCGUCCCCUCGGUAAUGGCGAAUGGGACCCA [C24U A43U], the self-cleavage was found to be 0.182. On to GGCCGGCAUGGUCCCAGCCUCCUGGCUGGCGCCGGCUGGGCAACAUUCCGAGGGGACCGUCCCCUCUGUAAUGGCGAAUGGGACCCA [C24G G67U], for which the self-cleavage was 0.135. For GGCCGGCAUGGUCCCAGCCUCCUGGCAGGCGCCGGCUGGGCAACAUUCCGAGGGGACCGUCCCCUCGGUAAUGGCGAAUGGGACCCA [C24G U27A], the self-cleavage was 0.0437. For the variant GGCCGGCAUGGUCCCAGCCUCCUGGCUGGCGCCGGCCGGGCAACAUUCCGAGGGGACCGUCCCCUCGGUAAUGGCGAAUGGGACCCA [C24G U37C], the self-cleavage is 0.119. For the variant GGCCGGCAUGGUCCCAGCCUCCUUGCUGGCGCCGGCUGAGCAACAUUCCGAGGGGACCGUCCCCUCGGUAAUGGCGAAUGGGACCCA [C24U G39A], the self-cleavage was found to be 0.257. Take GGCCGGCAUGGUCCCAGCCUCCUGGCUGGCGCCGGCUGGGCAACAUUCCGAGGGGACCGUCCACUCGGUAAUGGCGAAUGGGACCCA [C24G C63A]: the self-cleavage amounted to 0.18. In the case of GGCCGGCAUGGUCCCAGCCUCCUGGCUGGCGCCGGCUGGGCAACAUUCCGAGGGGACCGUCCUCUCGGUAAUGGCGAAUGGGACCCA [C24G C63U] it was 0.0875; in that of GGCCGGCAUGGUCCCAGCCUCCUGGCUGGCGCCGGCUGGGCAACAUUCCGAGGGGACCGUCCCCUCGGUAAUCGCGAAUGGGACCCA [C24G G73C], 0.107; in that of GGCCGGCAUGGUCCCAGCCUCCUUGCUGGCUCCGGCUGGGCAACAUUCCGAGGGGACCGUCCCCUCGGUAAUGGCGAAUGGGACCCA [C24U G31U], 0.0228.

On to GGCCGGCAUGGUCCCAGCCUCCUUGCUGGCGCCGGCUGGGCAACAUUCCGAGGGGACCGUCCCCUAGGUAAUGGCGAAUGGGACCCA [C24U C66A], for which the self-cleavage stood at 0.525. Take GGCCGGCAUGGUCCCAGCCUCCUGGCUGGCGCCGGCUGAGCAACAUUCCGAGGGGACCGUCCCCUCGGUAAUGGCGAAUGGGACCCA [C24G G39A]: the self-cleavage is 0.0845. For GGCCGGCAUGGUCCCAGCCUCCUGGCUGGCGCCGGCUGCGCAACAUUCCGAGGGGACCGUCCCCUCGGUAAUGGCGAAUGGGACCCA [C24G G39C], the self-cleavage is 0.18.

As to GGCCGGCAUGGUCCCAGCCUCCUGGCUGGCGCCGGCUGGGCAACAUCCCGAGGGGACCGUCCCCUCGGUAAUGGCGAAUGGGACCCA [C24G U47C], the self-cleavage amounted to 0.0462.
